From the MegaScale stability set (Tsuboyama et al. 2023)

B1: EHEE_rd4_0086 (parent)
chain: EIHIRTNGEEQARKVYKMLAKRNYDVKIEQHNGQWVVTAS
B2: HHH_rd1_0493 (parent)
chain: RDEDEKEKIKEALKRGNEDKAKEIAKRANVSPEEYERLRKEAE

Variants of: B1
Assay: folding stability dG (cDNA display proteolysis); higher = more stable
Conditions: PBS, room temperature

Row | Variant | folding stability dG [kcal/mol]
1 | EIHIRTNGEEQARHVYKMLAKRNYDVKIEQHNGQWVVTAS | 1.53
2 | EIHIRTNGNEQARKVYKMLAKRNYDVKIEQHNGQWVVTAS | 0.702
3 | EIHIRTNGEEQARKVYKMLAKRNYDVKIEQMNGQWVVTAS | 2.03

Variants of: B2
Assay: as above
Conditions: PBS, room temperature

Row | Variant | folding stability dG [kcal/mol]
4 | RDSDEKEKIKEALKRGNEDKAKEIAKRANVSPEEYERLRKEAE | 2.89
5 | RDYDEKEKIKEALKRGNEDKAKEIAKRANVSPEEYERLRKEAE | 3.01
6 | RDLDEKEKIKEALKRGNEDKAKEIAKRANVSPEEYERLRKEAE | 2.89
7 | RDTDEKEKIKEALKRGNEDKAKEIAKRANVSPEEYERLRKEAE | 2.94
8 | RDKDEKEKIKEALKRGNEDKAKEIAKRANVSPEEYERLRKEAE | 2.93
9 | RDNDEKEKIKEALKRGNEDKAKEIAKRANVSPEEYERLRKEAE | 3
10 | RDVDEKEKIKEALKRGNEDKAKEIAKRANVSPEEYERLRKEAE | 2.76
11 | RDIDEKEKIKEALKRGNEDKAKEIAKRANVSPEEYERLRKEAE | 2.75
12 | RDHDEKEKIKEALKRGNEDKAKEIAKRANVSPEEYERLRKEAE | 3
13 | RDGDEKEKIKEALKRGNEDKAKEIAKRANVSPEEYERLRKEAE | 2.88
14 | RDADEKEKIKEALKRGNEDKAKEIAKRANVSPEEYERLRKEAE | 2.88
15 | RDRDEKEKIKEALKRGNEDKAKEIAKRANVSPEEYERLRKEAE | 2.93
16 | RDFDEKEKIKEALKRGNEDKAKEIAKRANVSPEEYERLRKEAE | 2.93
17 | RDCDEKEKIKEALKRGNEDKAKEIAKRANVSPEEYERLRKEAE | 2.57
18 | RDWDEKEKIKEALKRGNEDKAKEIAKRANVSPEEYERLRKEAE | 3
19 | RDDDEKEKIKEALKRGNEDKAKEIAKRANVSPEEYERLRKEAE | 3.11
20 | RDQDEKEKIKEALKRGNEDKAKEIAKRANVSPEEYERLRKEAE | 3.06
21 | RDPDEKEKIKEALKRGNEDKAKEIAKRANVSPEEYERLRKEAE | 2.79
22 | RDMDEKEKIKEALKRGNEDKAKEIAKRANVSPEEYERLRKEAE | 2.81
23 | PDEDEKEKIKEALKRGNEDKAKEIAKRANVSPEEYERLRKEAE | 3.19
24 | YDEDEKEKIKEALKRGNEDKAKEIAKRANVSPEEYERLRKEAE | 3.11
25 | WDEDEKEKIKEALKRGNEDKAKEIAKRANVSPEEYERLRKEAE | 3.04
26 | IDEDEKEKIKEALKRGNEDKAKEIAKRANVSPEEYERLRKEAE | 3.2

Row | Variant | folding stability dG [kcal/mol]
27 | HDEDEKEKIKEALKRGNEDKAKEIAKRANVSPEEYERLRKEAE | 3.11
28 | FDEDEKEKIKEALKRGNEDKAKEIAKRANVSPEEYERLRKEAE | 3.01
29 | EDEDEKEKIKEALKRGNEDKAKEIAKRANVSPEEYERLRKEAE | 3.02
30 | VDEDEKEKIKEALKRGNEDKAKEIAKRANVSPEEYERLRKEAE | 3.22
31 | CDEDEKEKIKEALKRGNEDKAKEIAKRANVSPEEYERLRKEAE | 2.64
32 | SDEDEKEKIKEALKRGNEDKAKEIAKRANVSPEEYERLRKEAE | 3.15
33 | ADEDEKEKIKEALKRGNEDKAKEIAKRANVSPEEYERLRKEAE | 3.23
34 | QDEDEKEKIKEALKRGNEDKAKEIAKRANVSPEEYERLRKEAE | 3.1
35 | DDEDEKEKIKEALKRGNEDKAKEIAKRANVSPEEYERLRKEAE | 3.13
36 | MDEDEKEKIKEALKRGNEDKAKEIAKRANVSPEEYERLRKEAE | 3.03
37 | TDEDEKEKIKEALKRGNEDKAKEIAKRANVSPEEYERLRKEAE | 3.28
38 | NDEDEKEKIKEALKRGNEDKAKEIAKRANVSPEEYERLRKEAE | 3.16
39 | LDEDEKEKIKEALKRGNEDKAKEIAKRANVSPEEYERLRKEAE | 3.08
40 | KDEDEKEKIKEALKRGNEDKAKEIAKRANVSPEEYERLRKEAE | 3.12
41 | GDEDEKEKIKEALKRGNEDKAKEIAKRANVSPEEYERLRKEAE | 3.1
42 | RSEDEKEKIKEALKRGNEDKAKEIAKRANVSPEEYERLRKEAE | 2.71
43 | RREDEKEKIKEALKRGNEDKAKEIAKRANVSPEEYERLRKEAE | 2.79
44 | RQEDEKEKIKEALKRGNEDKAKEIAKRANVSPEEYERLRKEAE | 3.15
45 | RAEDEKEKIKEALKRGNEDKAKEIAKRANVSPEEYERLRKEAE | 2.87
46 | RLEDEKEKIKEALKRGNEDKAKEIAKRANVSPEEYERLRKEAE | 3.39
47 | RKEDEKEKIKEALKRGNEDKAKEIAKRANVSPEEYERLRKEAE | 2.82
48 | RPEDEKEKIKEALKRGNEDKAKEIAKRANVSPEEYERLRKEAE | 3.06
49 | RVEDEKEKIKEALKRGNEDKAKEIAKRANVSPEEYERLRKEAE | 3.17

Row | Variant | folding stability dG [kcal/mol]
50 | RHEDEKEKIKEALKRGNEDKAKEIAKRANVSPEEYERLRKEAE | 3.05
51 | RYEDEKEKIKEALKRGNEDKAKEIAKRANVSPEEYERLRKEAE | 3.38
52 | RCEDEKEKIKEALKRGNEDKAKEIAKRANVSPEEYERLRKEAE | 2.94
53 | RMEDEKEKIKEALKRGNEDKAKEIAKRANVSPEEYERLRKEAE | 2.86
54 | RGEDEKEKIKEALKRGNEDKAKEIAKRANVSPEEYERLRKEAE | 2.95
55 | REEDEKEKIKEALKRGNEDKAKEIAKRANVSPEEYERLRKEAE | 3.11
56 | RTEDEKEKIKEALKRGNEDKAKEIAKRANVSPEEYERLRKEAE | 3.03
57 | RWEDEKEKIKEALKRGNEDKAKEIAKRANVSPEEYERLRKEAE | 3.17
58 | RIEDEKEKIKEALKRGNEDKAKEIAKRANVSPEEYERLRKEAE | 3.21
59 | RNEDEKEKIKEALKRGNEDKAKEIAKRANVSPEEYERLRKEAE | 3
60 | RFEDEKEKIKEALKRGNEDKAKEIAKRANVSPEEYERLRKEAE | 3.22
61 | RDEDEKAKIKEALKRGNEDKAKEIAKRANVSPEEYERLRKEAE | 3.08
62 | RDEDKKEKIKEALKRGNEDKAKEIAKRANVSPEEYERLRKEAE | 2.24
63 | RDEDYKEKIKEALKRGNEDKAKEIAKRANVSPEEYERLRKEAE | 4.39
64 | RDEDQKEKIKEALKRGNEDKAKEIAKRANVSPEEYERLRKEAE | 2.87
65 | RDEDHKEKIKEALKRGNEDKAKEIAKRANVSPEEYERLRKEAE | 3.3
66 | RDEDAKEKIKEALKRGNEDKAKEIAKRANVSPEEYERLRKEAE | 3.7
67 | RDEDFKEKIKEALKRGNEDKAKEIAKRANVSPEEYERLRKEAE | 4.03
68 | RDEDRKEKIKEALKRGNEDKAKEIAKRANVSPEEYERLRKEAE | 2.1
69 | RDEDPKEKIKEALKRGNEDKAKEIAKRANVSPEEYERLRKEAE | 3.46
70 | RDEDNKEKIKEALKRGNEDKAKEIAKRANVSPEEYERLRKEAE | 2.71
71 | RDEDVKEKIKEALKRGNEDKAKEIAKRANVSPEEYERLRKEAE | 4.07
72 | RDEDMKEKIKEALKRGNEDKAKEIAKRANVSPEEYERLRKEAE | 3.33

Row | Variant | folding stability dG [kcal/mol]
73 | RDEDWKEKIKEALKRGNEDKAKEIAKRANVSPEEYERLRKEAE | 4.45
74 | RDEDCKEKIKEALKRGNEDKAKEIAKRANVSPEEYERLRKEAE | 2.42
75 | RDEDSKEKIKEALKRGNEDKAKEIAKRANVSPEEYERLRKEAE | 3.02
76 | RDEDIKEKIKEALKRGNEDKAKEIAKRANVSPEEYERLRKEAE | 4.07
77 | RDEDGKEKIKEALKRGNEDKAKEIAKRANVSPEEYERLRKEAE | 2.08
78 | RDEDTKEKIKEALKRGNEDKAKEIAKRANVSPEEYERLRKEAE | 3.37
79 | RDEDDKEKIKEALKRGNEDKAKEIAKRANVSPEEYERLRKEAE | 3
80 | RDEDLKEKIKEALKRGNEDKAKEIAKRANVSPEEYERLRKEAE | 3.6
81 | RDEDEHEKIKEALKRGNEDKAKEIAKRANVSPEEYERLRKEAE | 3.07
82 | RDEDENEKIKEALKRGNEDKAKEIAKRANVSPEEYERLRKEAE | 2.53
83 | RDEDEYEKIKEALKRGNEDKAKEIAKRANVSPEEYERLRKEAE | 3.4
84 | RDEDEFEKIKEALKRGNEDKAKEIAKRANVSPEEYERLRKEAE | 3.23
85 | RDEDEDEKIKEALKRGNEDKAKEIAKRANVSPEEYERLRKEAE | 1.85
86 | RDEDEAEKIKEALKRGNEDKAKEIAKRANVSPEEYERLRKEAE | 2.57
87 | RDEDESEKIKEALKRGNEDKAKEIAKRANVSPEEYERLRKEAE | 2.56
88 | RDEDEWEKIKEALKRGNEDKAKEIAKRANVSPEEYERLRKEAE | 3.32
89 | RDEDETEKIKEALKRGNEDKAKEIAKRANVSPEEYERLRKEAE | 2.61
90 | RDEDEQEKIKEALKRGNEDKAKEIAKRANVSPEEYERLRKEAE | 2.39
91 | RDEDEMEKIKEALKRGNEDKAKEIAKRANVSPEEYERLRKEAE | 3.11
92 | RDEDEVEKIKEALKRGNEDKAKEIAKRANVSPEEYERLRKEAE | 2.74
93 | RDEDEREKIKEALKRGNEDKAKEIAKRANVSPEEYERLRKEAE | 3.3
94 | RDEDEGEKIKEALKRGNEDKAKEIAKRANVSPEEYERLRKEAE | 2.46
95 | RDEDEPEKIKEALKRGNEDKAKEIAKRANVSPEEYERLRKEAE | 1.72

Row | Variant | folding stability dG [kcal/mol]
96 | RDEDEEEKIKEALKRGNEDKAKEIAKRANVSPEEYERLRKEAE | 2.27
97 | RDEDEIEKIKEALKRGNEDKAKEIAKRANVSPEEYERLRKEAE | 3.24
98 | RDEDECEKIKEALKRGNEDKAKEIAKRANVSPEEYERLRKEAE | 1.8
99 | RDEDELEKIKEALKRGNEDKAKEIAKRANVSPEEYERLRKEAE | 3.25
100 | RDEIEKEKIKEALKRGNEDKAKEIAKRANVSPEEYERLRKEAE | 2.95
101 | RDEWEKEKIKEALKRGNEDKAKEIAKRANVSPEEYERLRKEAE | 3.02
102 | RDEQEKEKIKEALKRGNEDKAKEIAKRANVSPEEYERLRKEAE | 2.88
103 | RDEHEKEKIKEALKRGNEDKAKEIAKRANVSPEEYERLRKEAE | 2.82
104 | RDEMEKEKIKEALKRGNEDKAKEIAKRANVSPEEYERLRKEAE | 2.96
105 | RDEEEKEKIKEALKRGNEDKAKEIAKRANVSPEEYERLRKEAE | 2.98
106 | RDESEKEKIKEALKRGNEDKAKEIAKRANVSPEEYERLRKEAE | 3.03
107 | RDETEKEKIKEALKRGNEDKAKEIAKRANVSPEEYERLRKEAE | 2.91
108 | RDEFEKEKIKEALKRGNEDKAKEIAKRANVSPEEYERLRKEAE | 2.73
109 | RDECEKEKIKEALKRGNEDKAKEIAKRANVSPEEYERLRKEAE | 2.96
110 | RDEVEKEKIKEALKRGNEDKAKEIAKRANVSPEEYERLRKEAE | 2.88
111 | RDEPEKEKIKEALKRGNEDKAKEIAKRANVSPEEYERLRKEAE | 2.48
112 | RDEYEKEKIKEALKRGNEDKAKEIAKRANVSPEEYERLRKEAE | 2.9
113 | RDELEKEKIKEALKRGNEDKAKEIAKRANVSPEEYERLRKEAE | 3.01
114 | RDENEKEKIKEALKRGNEDKAKEIAKRANVSPEEYERLRKEAE | 2.89
115 | RDEKEKEKIKEALKRGNEDKAKEIAKRANVSPEEYERLRKEAE | 2.81
116 | RDEGEKEKIKEALKRGNEDKAKEIAKRANVSPEEYERLRKEAE | 2.8
117 | RDEAEKEKIKEALKRGNEDKAKEIAKRANVSPEEYERLRKEAE | 2.83
118 | RDEREKEKIKEALKRGNEDKAKEIAKRANVSPEEYERLRKEAE | 2.88
